How the values were obtained:
[1] = target: C3 mutant with cys(C) at position 1303 and glutamine at 1320
[2] = target: C3 mutant with trp(W) at position 1303 and glutamine at 1320
[3] = target: mutant C3M-26 (Arg1303->Gln, Arg1320->Gln)
[4] = target: E1Q2 mutant C3 (Arg1303 changed to Glu, plus Arg1320 changed to Gln)
[5] = target: mutant C3M-I23 (Arg1303->Gln)
[6] = target: C3 mutant with gly(G) at position 1303 and glutamine at 1320
[7] = target: wild-type human C3 (expressed from the PC3 coding sequence)
[8] = target: C3 mutant with tyr(Y) at position 1303 and glutamine at 1320
[9] = target: mutant C3M-51 (Arg1320->Gln)
Sequence of mutant C3M-51 (Arg1320->Gln) (chain, as listed by the source, stated change not applied, chain 1 of 2): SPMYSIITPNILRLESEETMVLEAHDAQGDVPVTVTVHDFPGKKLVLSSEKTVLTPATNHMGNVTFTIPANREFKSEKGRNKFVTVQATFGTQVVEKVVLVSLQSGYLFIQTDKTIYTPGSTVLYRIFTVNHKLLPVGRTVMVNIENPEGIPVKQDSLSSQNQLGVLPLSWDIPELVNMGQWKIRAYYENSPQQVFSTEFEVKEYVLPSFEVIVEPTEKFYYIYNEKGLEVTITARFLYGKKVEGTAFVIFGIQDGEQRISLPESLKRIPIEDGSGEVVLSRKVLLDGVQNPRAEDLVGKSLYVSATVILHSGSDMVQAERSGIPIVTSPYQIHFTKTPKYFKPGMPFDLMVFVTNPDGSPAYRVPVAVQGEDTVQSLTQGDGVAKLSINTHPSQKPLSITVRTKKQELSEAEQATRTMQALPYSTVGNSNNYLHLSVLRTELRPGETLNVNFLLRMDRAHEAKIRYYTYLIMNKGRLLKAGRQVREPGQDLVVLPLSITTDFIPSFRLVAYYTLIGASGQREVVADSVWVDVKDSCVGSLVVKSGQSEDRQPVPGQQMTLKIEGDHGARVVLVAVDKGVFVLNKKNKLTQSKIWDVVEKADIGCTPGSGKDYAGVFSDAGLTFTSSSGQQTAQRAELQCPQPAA
Sequence of mutant C3M-51 (Arg1320->Gln) (chain, as listed by the source, stated change not applied, chain 2 of 2): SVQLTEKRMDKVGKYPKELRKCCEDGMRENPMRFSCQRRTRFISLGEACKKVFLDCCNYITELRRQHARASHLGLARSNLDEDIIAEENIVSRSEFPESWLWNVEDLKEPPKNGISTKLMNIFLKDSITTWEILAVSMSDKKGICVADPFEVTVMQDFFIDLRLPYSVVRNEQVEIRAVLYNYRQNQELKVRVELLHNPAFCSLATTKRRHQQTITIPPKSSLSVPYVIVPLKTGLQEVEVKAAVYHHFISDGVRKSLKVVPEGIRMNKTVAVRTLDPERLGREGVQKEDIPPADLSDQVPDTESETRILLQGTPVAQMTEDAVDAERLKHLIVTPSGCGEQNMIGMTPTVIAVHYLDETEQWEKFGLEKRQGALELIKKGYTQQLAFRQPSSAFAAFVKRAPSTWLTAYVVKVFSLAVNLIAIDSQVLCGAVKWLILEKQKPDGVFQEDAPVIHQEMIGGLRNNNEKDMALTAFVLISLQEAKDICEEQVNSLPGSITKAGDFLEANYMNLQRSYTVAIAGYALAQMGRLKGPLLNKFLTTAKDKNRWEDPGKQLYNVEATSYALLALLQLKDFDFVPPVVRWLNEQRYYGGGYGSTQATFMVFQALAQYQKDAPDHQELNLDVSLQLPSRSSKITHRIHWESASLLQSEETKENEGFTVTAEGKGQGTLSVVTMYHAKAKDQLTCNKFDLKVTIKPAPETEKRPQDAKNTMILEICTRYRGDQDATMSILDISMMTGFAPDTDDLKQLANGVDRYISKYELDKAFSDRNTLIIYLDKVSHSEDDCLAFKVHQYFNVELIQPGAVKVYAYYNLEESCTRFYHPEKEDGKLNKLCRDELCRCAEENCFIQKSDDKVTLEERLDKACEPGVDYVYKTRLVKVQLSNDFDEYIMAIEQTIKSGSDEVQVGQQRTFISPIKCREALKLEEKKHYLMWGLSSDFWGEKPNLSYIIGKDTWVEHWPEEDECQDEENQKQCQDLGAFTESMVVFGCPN

Sequence of mutant C3M-26 (Arg1303->Gln, Arg1320->Gln) (chain, as listed by the source, stated change not applied, chain 1 of 2): as the sequence (chain, as listed by the source, stated change not applied, chain 1 of 2) above
Sequence of mutant C3M-26 (Arg1303->Gln, Arg1320->Gln) (chain, as listed by the source, stated change not applied, chain 2 of 2): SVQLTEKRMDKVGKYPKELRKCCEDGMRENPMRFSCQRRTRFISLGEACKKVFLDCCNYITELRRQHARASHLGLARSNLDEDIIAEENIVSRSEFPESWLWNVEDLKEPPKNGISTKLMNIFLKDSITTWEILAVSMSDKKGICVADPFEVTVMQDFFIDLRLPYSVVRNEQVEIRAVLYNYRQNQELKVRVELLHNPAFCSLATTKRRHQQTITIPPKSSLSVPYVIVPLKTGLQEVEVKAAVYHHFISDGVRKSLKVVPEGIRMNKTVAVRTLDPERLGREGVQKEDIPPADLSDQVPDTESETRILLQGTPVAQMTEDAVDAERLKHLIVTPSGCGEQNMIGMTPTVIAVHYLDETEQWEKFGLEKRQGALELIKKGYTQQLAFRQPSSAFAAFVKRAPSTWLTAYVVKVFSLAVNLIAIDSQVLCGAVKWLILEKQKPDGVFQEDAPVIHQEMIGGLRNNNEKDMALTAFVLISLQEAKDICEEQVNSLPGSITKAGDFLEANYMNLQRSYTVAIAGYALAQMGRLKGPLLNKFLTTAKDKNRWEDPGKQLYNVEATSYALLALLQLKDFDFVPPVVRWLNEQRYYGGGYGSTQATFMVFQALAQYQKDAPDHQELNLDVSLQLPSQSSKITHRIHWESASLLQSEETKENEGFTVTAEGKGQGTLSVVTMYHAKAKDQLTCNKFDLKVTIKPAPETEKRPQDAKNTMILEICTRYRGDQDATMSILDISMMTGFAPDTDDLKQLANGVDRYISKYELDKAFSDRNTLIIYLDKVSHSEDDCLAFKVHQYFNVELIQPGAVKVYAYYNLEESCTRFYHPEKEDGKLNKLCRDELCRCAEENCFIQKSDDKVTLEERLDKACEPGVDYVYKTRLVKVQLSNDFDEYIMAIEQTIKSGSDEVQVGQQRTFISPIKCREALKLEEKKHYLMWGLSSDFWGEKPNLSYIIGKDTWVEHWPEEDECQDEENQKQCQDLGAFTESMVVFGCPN
Sequence of C3 mutant with gly(G) at position 1303 and glutamine at 1320 (chain, as listed by the source mutant, chain 1 of 2): as the sequence (chain, as listed by the source, stated change not applied, chain 1 of 2) above
Sequence of C3 mutant with gly(G) at position 1303 and glutamine at 1320 (chain, as listed by the source mutant, chain 2 of 2): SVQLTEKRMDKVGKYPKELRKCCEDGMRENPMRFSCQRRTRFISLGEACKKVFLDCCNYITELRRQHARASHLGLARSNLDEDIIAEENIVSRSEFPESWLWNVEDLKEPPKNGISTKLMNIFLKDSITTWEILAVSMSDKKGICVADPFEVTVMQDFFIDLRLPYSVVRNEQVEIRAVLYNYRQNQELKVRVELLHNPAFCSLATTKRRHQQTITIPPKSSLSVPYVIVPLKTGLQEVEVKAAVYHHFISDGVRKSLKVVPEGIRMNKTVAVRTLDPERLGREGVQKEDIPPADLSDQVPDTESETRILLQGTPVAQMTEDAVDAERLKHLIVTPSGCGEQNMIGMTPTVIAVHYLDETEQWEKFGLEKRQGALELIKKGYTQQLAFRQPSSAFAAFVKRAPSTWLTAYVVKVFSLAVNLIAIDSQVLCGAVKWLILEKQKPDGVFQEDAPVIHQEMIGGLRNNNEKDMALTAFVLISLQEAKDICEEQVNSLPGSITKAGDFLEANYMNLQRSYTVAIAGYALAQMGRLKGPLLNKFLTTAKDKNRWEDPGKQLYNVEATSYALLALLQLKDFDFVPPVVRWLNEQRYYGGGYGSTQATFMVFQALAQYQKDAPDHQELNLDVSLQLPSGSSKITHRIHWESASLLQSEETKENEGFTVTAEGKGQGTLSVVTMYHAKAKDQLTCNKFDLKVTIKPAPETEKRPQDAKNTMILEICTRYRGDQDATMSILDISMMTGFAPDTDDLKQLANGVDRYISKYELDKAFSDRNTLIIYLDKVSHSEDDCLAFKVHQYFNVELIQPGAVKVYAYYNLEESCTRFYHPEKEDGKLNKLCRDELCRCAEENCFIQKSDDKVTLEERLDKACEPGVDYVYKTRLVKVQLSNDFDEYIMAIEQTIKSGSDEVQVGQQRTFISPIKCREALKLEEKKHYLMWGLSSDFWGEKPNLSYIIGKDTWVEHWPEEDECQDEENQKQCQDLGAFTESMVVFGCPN

B1: factor I (protein)
chain: KVTYTSQEDLVEKKCLAKKYTHLSCDKVFCQPWQRCIEGTCVCKLPYQCPKNGTAVCATNRRSFPTYCQQKSLECLHPGTKFLNNGTCTAEGKFSVSLKHGNTDSEGIVEVKLVDQDKTMFICKSSWSMREANVACLDLGFQQGADTQRRFKLSDLSINSTECLHVHCRGLETSLAECTFTKRRTMGYQDFADVVCYTQKADSPMDDFFQCVNGKYISQMKACDGINDCGDQSDELCCKACQGKGFHCKSGVCIPSQYQCNGEVDCITGEDEVGCAGFASVTQEETEILTADMDAERRRIKSLLPKLSCGVKNRMHIRRKRIVGGKRAQLGDLPWQVAIKDASGITCGGIYIGGCWILTAAHCLRASKTHRYQIWTTVVDWIHPDLKRIVIEYVDRIIFHENYNAGTYQNDIALIEMKKDGNKKDCELPRSIPACVPWSPYLFQPNDTCIVSGWGREKDNERVFSLQWGEVKLISNCSKFYGNRFYEKEMECAGTYDGSIDACKGDSGGPLVCMDANNVTYVWGVVSWGENCGKPEFPGVYTKVANYFDWISYHVGRPFISQYNV
B1 was tested, and the “Factor I-mediated cleavage at position 1303 (35S label, SDS-PAGE, autoradiography)” value (“Factor I-mediated cleavage” below) [1] was “cleavage occurs in the order: arg(R)>tyr(Y)>cys(C) and trp(W)>gln(Q)>gly(G) and glu(E)”, the “Factor I-mediated cleavage” value [2] was “cleavage occurs in the order: arg(R)>tyr(Y)>cys(C) and trp(W)>gln(Q)>gly(G) and glu(E)” and the “Factor I-mediated cleavage” value [3] was “cleavage occurs in the order: arg(R)>tyr(Y)>cys(C) and trp(W)>gln(Q)>gly(G) and glu(E)”. The “cleavage of the C3b-like product by factors H and I (immunoprecipitation, western blot)” value (from here on “cleavage of the C3b-like product”) [3] was “It was also very resistant to the additional factors H and I (3-D) in comparison with the unmutated C3 (1) and other mutants (2 and 4)”, the “Factor I-mediated cleavage” value [4] was “cleavage occurs in the order: arg(R)>tyr(Y)>cys(C) and trp(W)>gln(Q)>gly(G) and glu(E)” and the “cleavage of the C3b-like product” value [5] was “no 68 kDa band was present, showing that this mutant is resistant to cleavage at the mutated Gln1303”. The “Factor I-mediated cleavage” value [6] was “cleavage occurs in the order: arg(R)>tyr(Y)>cys(C) and trp(W)>gln(Q)>gly(G) and glu(E)”, the “cleavage of the C3b product by factors H and I (immunoprecipitation, western blot)” value [7] was “the C3b product is further cleaved by endogenous enzymes in 1-B or added factors H and I in 1-D. The 43 kDa band indicates cleavage at Arg1320, and the 68 kDa band (visible in longer exposures) indicates cleavage at Arg1303” and the “Factor I-mediated cleavage” value [8] was “cleavage occurs in the order: arg(R)>tyr(Y)>cys(C) and trp(W)>gln(Q)>gly(G) and glu(E)”. For the same protein, the “Factor I-mediated cleavage” value [9] was “cleavage occurs in the order: arg(R)>tyr(Y)>cys(C) and trp(W)>gln(Q)>gly(G) and glu(E)” and the “cleavage of the C3b-like product” value [9] was “the absence of a 43 kDa band indicates that it is not cleaved at the mutated Gln1320”.

Source: US7002001
